{"source": "patent US20190202896A1", "about": "(NOVOBIND LIVESTOCK THERAPEUTICS, published 2019)", "data": [{"target": "T1, FimA (Salmonella Type-1 fimbrial protein, A chain), recombinant (Salmonella (serovar ), UniProt P37921 23-185)", "T1 sequence": "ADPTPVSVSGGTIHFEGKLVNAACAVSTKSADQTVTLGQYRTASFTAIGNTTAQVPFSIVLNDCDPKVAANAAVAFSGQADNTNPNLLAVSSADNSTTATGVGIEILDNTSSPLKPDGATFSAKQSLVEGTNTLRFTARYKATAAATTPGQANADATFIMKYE", "experiment": "phage ELISA, antigen-coated wells, anti-M13-HRP, A405", "units": {"binding over background (PBS-only wells)": "fold"}, "values": [{"binder": "NBX0201 (VHH, also called Clone 98) VHH: QVQLQESGGGLVQAGGSLRLSCAASTRTSSSSYTAWFRQAPGNEREFVASISYSGTTTYYADPVKGRFTISRDSAKNTVYLQMNSLKPDDTAVYYCAADRRSTIGSPRQQYAYWGQGTQVTVSS", "binding over background (PBS-only wells)": "≥ 4"}, {"binder": "NBX0203 (VHH, also called Clone 100) VHH: QVQLQQSGGGLVQAGGSLRLSCAASGRTSPSSYTAWFRQAPGNEREFVASISWSGTTTYYADPVKGRFTISRDNAKNTVYLQMNSLKPDDTAVYYCAADRRSTIGSPRQQYAYWGQGTQVTVSS", "binding over background (PBS-only wells)": "≥ 4"}, {"binder": "NBX0202 (VHH, also called Clone 99) VHH: QVQLQESGGGLVQAGGSLRLSCAASGRTSSSAYTAWFRQAPGNEREFVASISWSGTTTYHAHPVKGRFTIFRDNAKNTVYLQMNSLKPDDTGVYYCAADRRSTIGTPREQYAYWGQGTQVTVSS", "binding over background (PBS-only wells)": "≥ 4"}]}]}
